The record followed here is the RNAGym collection of RNA variant scans (doi:10.1073/pnas.2313332121).

Variants at the floor of the assay were thinned out.

First the molecules themselves.
B1: TPR 5TU (parent)
chain: GGAUCUUCUCGAUCUAACAAAAAAGACAAAUCUGCCACAAAGCUUGAGAGCAUCUUCGGAUGCAGAGGCGGCAGCCUUCGGUGGCGCGAUAGCGCCAACGUUCUCAACUAUGACACGCAAAACGCGUGCUCCGUUGAAUGGAGUUUAUCAUG

In this data set the parent is B1. As to the kind of experiment: polymerase ribozyme fitness, log enrichment relative to wild type (log ratio); higher = more active; in vitro selection for triplet polymerase activity. In outline:
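In triplicate, a single round of in vitro selection was run on each mutant library, PCR-built and transcribed, covering one subunit of a heterodimeric triplet polymerase ribozyme. Frozen incubation at −7 °C followed annealing with a biotinylated primer, partner subunit and triplets, and extended constructs were then gel-excised, streptavidin-captured and taken through RT-PCR. Fitness is the logarithm of genotype enrichment over wild-type enrichment, from inverse-variance-weighted replicate averages of Illumina-sequenced inputs and outputs. […] only genotypes with ≥10 input reads and ≥1 read per output were kept.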
Turning to A29C U55A U77G U101G U146A U148G, the “polymerase ribozyme fitness (log ratio)” value is not above -4.2.
To U33A A40U C57U G86U G112A belongs not above -4.2.
To G48C C85A belongs -2.58; to A47U G48U U55A U82G U134C, -3.1; to G83A A119C A120U C149U, -1.37.
For the variant C27U U55G U61A C87G, the “polymerase ribozyme fitness (log ratio)” value is not above -4.2.
Consider A52U C87U, for which the “polymerase ribozyme fitness (log ratio)” value was -2.81.
The same measure for U15C G50C U101G C105U: -1.68; for C8G A41U A49G C95U A147U: not above -4.2; for C54U C75U: -0.0882.
The same measure for A17C A28U G88C U144C: -4.01; for A29C A49U A150C: not above -4.2; for G81A G92C C99U G124C G133U: not above -4.2.
The same measure for G34A U56C G126U: -1.64; for A21C C87A: -4.15; for G50A U55G G67C G80U C85G C105U A138U: not above -4.2.
Take G86U C149U: the “polymerase ribozyme fitness (log ratio)” value is -2.48.
Take C85A G117U: the “polymerase ribozyme fitness (log ratio)” value is -0.587.
The same measure for C36A C75A C79U A115U A120C C125U: not above -4.2.
The same measure for C10G U77C U90A A119G A137G: not above -4.2.
C18U A89C A91G A122U C125A U134C: the “polymerase ribozyme fitness (log ratio)” value is not above -4.2.
For the variant C108U U146A, the “polymerase ribozyme fitness (log ratio)” value was -2.84.
The same measure for A120G U127C: -2.22; for U78G C79A C108U: not above -4.2; for C14G A19C A22C U61A A91U C105G C108G C114U A120G: not above -4.2.
The same measure for U55A C96U: -0.113.
With G58C A60G C63U G84A, the “polymerase ribozyme fitness (log ratio)” value is 0.439.
For the variant U13G C14G C18U A22C C57U G59A C75A C93A G143U U146A G152U, the “polymerase ribozyme fitness (log ratio)” value is not above -4.2.
As for A19G A23G A110U, the “polymerase ribozyme fitness (log ratio)” value was not above -4.2.
To G46U belongs -0.0995; to C51U A52U G94U, -2.8; to C5A U31C C36A G62C A66G C85G U104A, not above -4.2.
As to A20C U53A U56G C85A A119C, the “polymerase ribozyme fitness (log ratio)” value is -4.
On to C85U C96A, for which the “polymerase ribozyme fitness (log ratio)” value was -0.931.
The same measure for C8A G42A A49C G83U C93A G94A: not above -4.2; for A39U G50A G67U G71C G84A: not above -4.2; for C57A G92A: -3.13.
Consider A28U U31C A91G C108U G136U A142G, for which the “polymerase ribozyme fitness (log ratio)” value was not above -4.2.
With G11C U56A C75U U145A, the “polymerase ribozyme fitness (log ratio)” value was -1.61.
Turning to A21C C57A A91G C99U G140C, the “polymerase ribozyme fitness (log ratio)” value was not above -4.2.
To C54A G81A belongs -1.07; to C79U C87A C96U A98C G141C, not above -4.2.
The same measure for U7G A23C A47C U53A C116A: not above -4.2; for A98U G141C: -0.0983.
The same measure for A23U G80A A150G: not above -4.2; for A19U C93U U148A: -3.95.
A21G C75U: the “polymerase ribozyme fitness (log ratio)” value came out at 0.894.
Regarding G50A G58A U78A G94A G141U, the “polymerase ribozyme fitness (log ratio)” value was not above -4.2.
The same measure for A40G U56A G84A A91C C95G G100U: not above -4.2; for A12C A22C U82A G126A: 0.264; for C85A C96U: -2.63.
To A122C C125A G140A G143U belongs not above -4.2; to A21U A22U G46A G48C U56A G70C G83U G124A, not above -4.2.
To C75U G94C belongs 0.488; to A23G G58U C87A A115U, not above -4.2.
Regarding G62A G68C C87A, the “polymerase ribozyme fitness (log ratio)” value was not above -4.2.
A3G: the “polymerase ribozyme fitness (log ratio)” value was -0.234.
Consider U4C A147C, for which the “polymerase ribozyme fitness (log ratio)” value was -0.0283.
Take A24U G50U G143C: the “polymerase ribozyme fitness (log ratio)” value is -2.91.
For the variant G50A C95G A115U, the “polymerase ribozyme fitness (log ratio)” value is not above -4.2.
In the case of U53A A64G C103G G124A, the “polymerase ribozyme fitness (log ratio)” value was not above -4.2.
Turning to A3U U6G G48A A107G, the “polymerase ribozyme fitness (log ratio)” value is not above -4.2.
The same measure for C38A U146G: -1.37.
Turning to U15C C99G, the “polymerase ribozyme fitness (log ratio)” value is -0.377.
For G58C C118U U135C U145A, the “polymerase ribozyme fitness (log ratio)” value was -1.79.
On to A16C G92U C105U A107U A110C A138C, for which the “polymerase ribozyme fitness (log ratio)” value is not above -4.2.
The same measure for C14G U45A C79U G88A U104G A113U: -4.17; for A21C A52C C57U A64C A66C G71U A91U G100A C103U U127G: not above -4.2.
Consider A26C G58C A60U G71C C93G, for which the “polymerase ribozyme fitness (log ratio)” value was not above -4.2.
To C10U G143U belongs -3.61; to C5U C14U A23C U90C C96A C103G G124U, not above -4.2; to A30G C38U G48A A66C G80U G84A C105G U109A C125A, not above -4.2.
In the case of C8A C36U G62U C95G A115U, the “polymerase ribozyme fitness (log ratio)” value is not above -4.2.
Consider A3G C27A G88C A122C A138U, for which the “polymerase ribozyme fitness (log ratio)” value is not above -4.2.
For the variant A49C G50U A64C A73U C87A A115G C118G, the “polymerase ribozyme fitness (log ratio)” value is not above -4.2.
The same measure for U45A G48U G50C C85A C87A C95A U145C: not above -4.2; for C10U C14U C54U C72U U78A C79U G94C A97U: not above -4.2; for A49C A73G U90C C149U: not above -4.2.
U33G U53A G59C G84A G94A C125G U144C: the “polymerase ribozyme fitness (log ratio)” value was not above -4.2.
Turning to U101G G126U, the “polymerase ribozyme fitness (log ratio)” value came out at 0.138.
C18U C32U A41G G48A G68C C87U G94U A107G C149A A150G: the “polymerase ribozyme fitness (log ratio)” value was not above -4.2.
The same measure for C14G A16C C51U G94U C125U: -3.93; for A21U A49G G84U U145G: -2.57; for A12U C36U: -2.21.
